According to patent publication US6600012:

Target: HLA.A2 on T2 mutant cells
Assay: T2 cell HLA.A2 upregulation assay, flow cytometry with MA2.1

B1: …, MUC-1 tandem repeat synthetic 9 mer (peptide)
peptide: SAPDTRPAP
modifications: not checked
**Q.** Which % Change in mean channel intensity does the source give for B1 here?
**A.** The % Change in mean channel intensity was 48%.
